Source: paper doi:10.1101/2021.09.20.461157 (bioRxiv, 2021)

Molecular target: the molecule itself
Assay: cryo-EM structure

B1: Mouse EHD4 (residues 22-541, EHD4^ΔN) (domain or fragment, UniProt Q9EQP2 22-541, looked up)
chain: QTVTGGLRSLYQRKVLPLEEAYRFHEFHSPALEDADFENKPMILLVGQYSTGKTTFIRYLLEQDFPGMRIGPEPTTDSFIAVMYGETEGSTPGNALVVDPKKPFRKLSRFGNAFLNRFMCSQLPNQVLKSISIIDSPGILSGEKQRISRGYDFCQVLQWFAERVDRIILLFDAHKLDISDEFSEAIKAFRGQDDKIRVVLNKADQVDTQQLMRVYGALMWSLGKVINTPEVLRVYIGSFWAQPLQNTDNRRLFEAEAQDLFRDIQSLPQKAAVRKLNDLIKRARLAKVHAYIISYLKKEMPNMFGKENKKRELIYRLPEIYVQLQREYQISAGDFPEVKAMQEQLENYDFTKFHSLKPKLIEAVDNMLTNKISSLMGLISQEEMNMPTQMVQGGAFDGTTEGPFNQGYGEGAKEGADEEEWVVAKDKPVYDELFYTLSPINGKISGVNAKKEMVTSKLPNSVLGKIWKLADCDCDGMLDEEEFALAKHLIKIKLDGYELPNSLPPHLVPPSHRKSLPKAD
binding result: binds
